From patent publication US20140120106A1, “Stimulation of Arterial Collateral Growth and Lymphogenesis” (YALE UNIVERSITY, priority 2011, published 2014) come the findings set out here.

This test addresses T1, HA-tagged human Raf1 S259A (human, UniProt P04049 1-648).
T1 construct: Overexpressed in HUVEC by lentivirus, immunoprecipitated from Triton lysates with anti-HA; also called Raf1SA; RAF1 Ser259 to Ala259 mutant; not shown: HA (hemagglutinin) tag
The test can be described thus: co-immunoprecipitation (anti-HA) from lentivirus-infected HUVEC lysates, western blot. Background: In western blotting, separated proteins are transferred to a membrane and probed.

B1: 14-3-3 (other, human, UniProt P63104 1-245, looked up)
chain: MDKNELVQKAKLAEQAERYDDMAACMKSVTEQGAELSNEERNLLSVAYKNVVGARRSSWRVVSSIEQKTEGAEKKQQMAREYREKIETELRDICNDVLSLLEKFLIPNASQAESKVFYLKMKGDYYRYLAEVAAGDDKKGIVDQSQQAYQEAFEISKKEMQPTHPIRLGLALNFSVFYYEILNSPEKACSLAKTAFDEAIAELDTLSEESYKDSTLIMQLLRDNLTLWTSDTQGDEAEAGEGGEN
notes: The results speak only of '14-3-3'; the zeta isoform is inferred from the antibody list; Endogenous protein in the cell lysate; also called 14-3-3 protein; 14-3-3ζ
Consider B1, for which the binding result is “no binding”.
